Data published in US20240252592A1 (TIANJIN INSTITUTE OF PHARMACEUTICAL RESEARCH, published 2024).
Numbered stars: 1 amine (or outer) side, 2 acyl side, 3 side chain; on linkers, the order of the positions; unused ones are H or OH. Square brackets hold non-standard residues; d marks the D form. Side chains are listed from the residue outwards. Ends that are not written are not given here. * marks the point of attachment. C20 diacid = O=C(O)CCCCCCCCCCCCCCCCCCC(=O)*; C18 diacid = O=C(O)CCCCCCCCCCCCCCCCC(=O)*; γGlu = O=C(O)[C@H](CCC(=O)[*:2])N[*:1]; Palmitoyl = CCCCCCCCCCCCCCCC(=O)*; AEEA = NCCOCCOCC(=O)O; Aib = CC(C)(N)C(=O)O

Legend:
GC receptor = test: cell-based or functional assay
human GLP-1 receptor = human GLP-1 receptor (human, UniProt P43220 24-463); test: cell-based or functional assay

EC50 of GC receptor mediated cAMP production (GC receptor) [nM]	EC50 of GLP-1 receptor mediated cAMP production (human GLP-1 receptor) [nM]	Binder
0.052		H[Aib]QGTFTSDK([AEEA-AEEA-γGlu-C18 diacid])SKYLEERAAKEFIAWLEGGPSSG-NH2 (not fully specified; printed as HAibQGTFTSDK**SKYLEERAAKEFIAWLEGGPSSG-Amid) [Compound 6]
0.1	20.8	HXQGTFTSDKSKYLEERAAKEFVAWLKEGGPSSG (HELM PEPTIDE1{H.[Aib].Q.G.T.F.T.S.D.K.S.K.Y.L.E.E.R.A.A.K.E.F.V.A.W.L.K.E.G.G.P.S.S.G.[am]}|PEPTIDE2{[CCCCCCCCCCCCCCCC(=O)[*:2]].[gGlu].[gGlu]}$PEPTIDE1,PEPTIDE2,10:R3-3:R2$$$V2.0; N-terminus assumed; SMILES CCCCCCCCCCCCCCCC(=O)N[C@@H](CCC(=O)N[C@@H](CCC(=O)NCCCC[C@H](NC(=O)[C@H](CC(=O)O)NC(=O)[C@H](CO)NC(=O)[C@@H](NC(=O)[C@H](Cc1ccccc1)NC(=O)[C@@H](NC(=O)CNC(=O)[C@H](CCC(N)=O)NC(=O)C(C)(C)NC(=O)[C@@H](N)Cc1c[nH]cn1)[C@@H](C)O)[C@@H](C)O)C(=O)N[C@@H](CO)C(=O)N[C@@H](CCCCN)C(=O)N[C@@H](Cc1ccc(O)cc1)C(=O)N[C@@H](CC(C)C)C(=O)N[C@@H](CCC(=O)O)C(=O)N[C@@H](CCC(=O)O)C(=O)N[C@@H](CCCNC(=N)N)C(=O)N[C@@H](C)C(=O)N[C@@H](C)C(=O)N[C@@H](CCCCN)C(=O)N[C@@H](CCC(=O)O)C(=O)N[C@@H](Cc1ccccc1)C(=O)N[C@H](C(=O)N[C@@H](C)C(=O)N[C@@H](Cc1c[nH]c2ccccc12)C(=O)N[C@@H](CC(C)C)C(=O)N[C@@H](CCCCN)C(=O)N[C@@H](CCC(=O)O)C(=O)NCC(=O)NCC(=O)N1CCC[C@H]1C(=O)N[C@@H](CO)C(=O)N[C@@H](CO)C(=O)NCC(N)=O)C(C)C)C(=O)O)C(=O)O) [Compound 3]
0.0352		HXQGTFTSDKSKYLXERAAKEFVXWLEAGGPSSG (HELM PEPTIDE1{H.[Aib].Q.G.T.F.T.S.D.K.S.K.Y.L.E.E.R.A.A.K.E.F.V.E.W.L.E.A.G.G.P.S.S.G.[am]}|PEPTIDE2{[CCCCCCCCCCCCCCCC(=O)[*:2]].[gGlu].[gGlu]}$PEPTIDE1,PEPTIDE2,10:R3-3:R2$$$V2.0; N-terminus assumed; SMILES CCCCCCCCCCCCCCCC(=O)N[C@@H](CCC(=O)N[C@@H](CCC(=O)NCCCC[C@H](NC(=O)[C@H](CC(=O)O)NC(=O)[C@H](CO)NC(=O)[C@@H](NC(=O)[C@H](Cc1ccccc1)NC(=O)[C@@H](NC(=O)CNC(=O)[C@H](CCC(N)=O)NC(=O)C(C)(C)NC(=O)[C@@H](N)Cc1c[nH]cn1)[C@@H](C)O)[C@@H](C)O)C(=O)N[C@@H](CO)C(=O)N[C@@H](CCCCN)C(=O)N[C@@H](Cc1ccc(O)cc1)C(=O)N[C@@H](CC(C)C)C(=O)N[C@@H](CCC(=O)O)C(=O)N[C@@H](CCC(=O)O)C(=O)N[C@@H](CCCNC(=N)N)C(=O)N[C@@H](C)C(=O)N[C@@H](C)C(=O)N[C@@H](CCCCN)C(=O)N[C@@H](CCC(=O)O)C(=O)N[C@@H](Cc1ccccc1)C(=O)N[C@H](C(=O)N[C@@H](CCC(=O)O)C(=O)N[C@@H](Cc1c[nH]c2ccccc12)C(=O)N[C@@H](CC(C)C)C(=O)N[C@@H](CCC(=O)O)C(=O)N[C@@H](C)C(=O)NCC(=O)NCC(=O)N1CCC[C@H]1C(=O)N[C@@H](CO)C(=O)N[C@@H](CO)C(=O)NCC(N)=O)C(C)C)C(=O)O)C(=O)O) [Compound 2]
0.024		HXQGTFTSDKSKYLXERAAKEFVXWLEAGGPSSG (HELM PEPTIDE1{H.[Aib].Q.G.T.F.T.S.D.K.S.K.Y.L.E.E.R.A.A.K.E.F.V.A.W.L.E.A.G.G.P.S.S.G.[am]}|PEPTIDE2{[CCCCCCCCCCCCCCCC(=O)[*:2]].[gGlu].[gGlu]}$PEPTIDE1,PEPTIDE2,10:R3-3:R2$$$V2.0; N-terminus assumed; SMILES CCCCCCCCCCCCCCCC(=O)N[C@@H](CCC(=O)N[C@@H](CCC(=O)NCCCC[C@H](NC(=O)[C@H](CC(=O)O)NC(=O)[C@H](CO)NC(=O)[C@@H](NC(=O)[C@H](Cc1ccccc1)NC(=O)[C@@H](NC(=O)CNC(=O)[C@H](CCC(N)=O)NC(=O)C(C)(C)NC(=O)[C@@H](N)Cc1c[nH]cn1)[C@@H](C)O)[C@@H](C)O)C(=O)N[C@@H](CO)C(=O)N[C@@H](CCCCN)C(=O)N[C@@H](Cc1ccc(O)cc1)C(=O)N[C@@H](CC(C)C)C(=O)N[C@@H](CCC(=O)O)C(=O)N[C@@H](CCC(=O)O)C(=O)N[C@@H](CCCNC(=N)N)C(=O)N[C@@H](C)C(=O)N[C@@H](C)C(=O)N[C@@H](CCCCN)C(=O)N[C@@H](CCC(=O)O)C(=O)N[C@@H](Cc1ccccc1)C(=O)N[C@H](C(=O)N[C@@H](C)C(=O)N[C@@H](Cc1c[nH]c2ccccc12)C(=O)N[C@@H](CC(C)C)C(=O)N[C@@H](CCC(=O)O)C(=O)N[C@@H](C)C(=O)NCC(=O)NCC(=O)N1CCC[C@H]1C(=O)N[C@@H](CO)C(=O)N[C@@H](CO)C(=O)NCC(N)=O)C(C)C)C(=O)O)C(=O)O) [Compound 4]
0.036		H[Aib]QGTFTSDK([AEEA-AEEA-γGlu-C20 diacid])SKYLEERAAKEFIAWLEAGGPSSG-NH2 (not fully specified; printed as HAibQGTFTSDK***SKYLEERAAKEFIAWLEAGGPSSG-Amid) [Compound 35]
0.033	0.076	H[Aib]QGTFTSDK([AEEA-AEEA-γGlu-C20 diacid])SKYLDERAAKEFVAWLEAGGPSSG-NH2 (not fully specified; printed as HAibQGTFTSDK***SKYLDERAAKEFVAWLEAGGPSSG-Amid) [Compound 13]
	0.72	H[Aib]QGTFTSDK([γGlu-γGlu-Palmitoyl])SKYLEERAAKEFVEWLEGGPSSG-NH2 (not fully specified; printed as HAibQGTFTSDK*SKYLEERAAKEFVEWLEGGPSSG-Amid) [Compound 7]
	0.26	HXQGTFTSDKSKYLXERAAKEFVXWLEGGPSSG (HELM PEPTIDE1{H.[Aib].Q.G.T.F.T.S.D.K.S.K.Y.L.E.E.R.A.A.K.E.F.V.E.W.L.E.G.G.P.S.S.G.[am]}|PEPTIDE2{[CCCCCCCCCCCCCCCC(=O)[*:2]].[gGlu].[gGlu]}$PEPTIDE1,PEPTIDE2,10:R3-3:R2$$$V2.0; N-terminus assumed; SMILES CCCCCCCCCCCCCCCC(=O)N[C@@H](CCC(=O)N[C@@H](CCC(=O)NCCCC[C@H](NC(=O)[C@H](CC(=O)O)NC(=O)[C@H](CO)NC(=O)[C@@H](NC(=O)[C@H](Cc1ccccc1)NC(=O)[C@@H](NC(=O)CNC(=O)[C@H](CCC(N)=O)NC(=O)C(C)(C)NC(=O)[C@@H](N)Cc1c[nH]cn1)[C@@H](C)O)[C@@H](C)O)C(=O)N[C@@H](CO)C(=O)N[C@@H](CCCCN)C(=O)N[C@@H](Cc1ccc(O)cc1)C(=O)N[C@@H](CC(C)C)C(=O)N[C@@H](CCC(=O)O)C(=O)N[C@@H](CCC(=O)O)C(=O)N[C@@H](CCCNC(=N)N)C(=O)N[C@@H](C)C(=O)N[C@@H](C)C(=O)N[C@@H](CCCCN)C(=O)N[C@@H](CCC(=O)O)C(=O)N[C@@H](Cc1ccccc1)C(=O)N[C@H](C(=O)N[C@@H](CCC(=O)O)C(=O)N[C@@H](Cc1c[nH]c2ccccc12)C(=O)N[C@@H](CC(C)C)C(=O)N[C@@H](CCC(=O)O)C(=O)NCC(=O)NCC(=O)N1CCC[C@H]1C(=O)N[C@@H](CO)C(=O)N[C@@H](CO)C(=O)NCC(N)=O)C(C)C)C(=O)O)C(=O)O) [Compound 5]
0.087		H[Aib]QGTFTSDK([AEEA-AEEA-γGlu-C18 diacid])SKYLDERAAKEFIAWLEGGPSSG-NH2 (not fully specified; printed as HAibQGTFTSDK**SKYLDERAAKEFIAWLEGGPSSG-Amid) [Compound 75]
0.076		H[Aib]QGTFTSDK([AEEA-AEEA-γGlu-C20 diacid])SKYLDERAAKEFIAWLEAGGPSSG-NH2 (not fully specified; printed as HAibQGTFTSDK***SKYLDERAAKEFIAWLEAGGPSSG-Amid) [Compound 77]
1.73	3.05	HXQGTFTSDKSKYLXEKRAKEFIXWLEAGGPSSG (HELM PEPTIDE1{H.[Aib].Q.G.T.F.T.S.D.K.S.K.Y.L.E.E.K.R.A.K.E.F.I.E.W.L.E.A.G.G.P.S.S.G.[am]}|PEPTIDE2{[CCCCCCCCCCCCCCCC(=O)[*:2]].[gGlu].[gGlu]}$PEPTIDE1,PEPTIDE2,10:R3-3:R2$$$V2.0; N-terminus assumed; SMILES CCCCCCCCCCCCCCCC(=O)N[C@@H](CCC(=O)N[C@@H](CCC(=O)NCCCC[C@H](NC(=O)[C@H](CC(=O)O)NC(=O)[C@H](CO)NC(=O)[C@@H](NC(=O)[C@H](Cc1ccccc1)NC(=O)[C@@H](NC(=O)CNC(=O)[C@H](CCC(N)=O)NC(=O)C(C)(C)NC(=O)[C@@H](N)Cc1c[nH]cn1)[C@@H](C)O)[C@@H](C)O)C(=O)N[C@@H](CO)C(=O)N[C@@H](CCCCN)C(=O)N[C@@H](Cc1ccc(O)cc1)C(=O)N[C@@H](CC(C)C)C(=O)N[C@@H](CCC(=O)O)C(=O)N[C@@H](CCC(=O)O)C(=O)N[C@@H](CCCCN)C(=O)N[C@@H](CCCNC(=N)N)C(=O)N[C@@H](C)C(=O)N[C@@H](CCCCN)C(=O)N[C@@H](CCC(=O)O)C(=O)N[C@@H](Cc1ccccc1)C(=O)N[C@H](C(=O)N[C@@H](CCC(=O)O)C(=O)N[C@@H](Cc1c[nH]c2ccccc12)C(=O)N[C@@H](CC(C)C)C(=O)N[C@@H](CCC(=O)O)C(=O)N[C@@H](C)C(=O)NCC(=O)NCC(=O)N1CCC[C@H]1C(=O)N[C@@H](CO)C(=O)N[C@@H](CO)C(=O)NCC(N)=O)[C@@H](C)CC)C(=O)O)C(=O)O) [Compound 11]
